*1 amine or outer side, *2 acyl side, *3 side chain or, on linkers, in order; H or OH if unused. Primed or numbered codes have the meaning given here. The star is where a group is joined. C20 diacid = O=C(O)CCCCCCCCCCCCCCCCCCC(=O)*; C18 diacid = O=C(O)CCCCCCCCCCCCCCCCC(=O)*; γGlu = O=C(O)[C@H](CCC(=O)[*:2])N[*:1]; Inp′ = not defined here; AEEA = NCCOCCOCC(=O)O
T1: human amylin receptor (AMY3) on CHO-K1/Gal5/AMY3 cells (human, UniProt P30988 25-474; O60896 24-148)
T1 sequence (looked up) 1: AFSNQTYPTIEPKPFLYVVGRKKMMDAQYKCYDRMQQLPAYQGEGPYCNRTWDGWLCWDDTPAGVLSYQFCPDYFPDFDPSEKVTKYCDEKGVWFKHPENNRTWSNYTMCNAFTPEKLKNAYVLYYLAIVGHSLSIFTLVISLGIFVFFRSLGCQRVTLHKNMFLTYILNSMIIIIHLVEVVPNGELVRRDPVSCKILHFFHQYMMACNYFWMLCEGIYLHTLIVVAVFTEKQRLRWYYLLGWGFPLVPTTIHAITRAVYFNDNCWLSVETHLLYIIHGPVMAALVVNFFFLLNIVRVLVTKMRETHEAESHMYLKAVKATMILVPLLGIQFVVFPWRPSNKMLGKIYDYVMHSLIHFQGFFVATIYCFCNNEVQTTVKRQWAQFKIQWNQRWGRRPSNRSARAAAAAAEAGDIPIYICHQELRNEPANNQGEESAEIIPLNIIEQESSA
T1 sequence (looked up) 2: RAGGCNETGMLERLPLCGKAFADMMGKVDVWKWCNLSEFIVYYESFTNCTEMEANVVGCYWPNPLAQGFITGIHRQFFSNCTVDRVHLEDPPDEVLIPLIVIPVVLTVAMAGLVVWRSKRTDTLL

B1: calcitonin derivative M14 (peptide)
peptide: {C20 diacid-γGlu}-ASQLSTAVLGRLSQELHRLEEYPRTDVGSGSP-NH2
SMILES: CC(C)C[C@H](NC(=O)[C@H](CCCNC(=N)N)NC(=O)CNC(=O)[C@H](CC(C)C)NC(=O)[C@@H](NC(=O)[C@H](C)NC(=O)[C@@H](NC(=O)[C@H](CO)NC(=O)[C@H](CC(C)C)NC(=O)[C@H](CCC(N)=O)NC(=O)[C@H](CO)NC(=O)[C@H](C)NC(=O)CC[C@H](NC(=O)CCCCCCCCCCCCCCCCCCC(=O)O)C(=O)O)[C@@H](C)O)C(C)C)C(=O)N[C@@H](CO)C(=O)N[C@@H](CCC(N)=O)C(=O)N[C@@H](CCC(=O)O)C(=O)N[C@@H](CC(C)C)C(=O)N[C@@H](Cc1c[nH]cn1)C(=O)N[C@@H](CCCNC(=N)N)C(=O)N[C@@H](CC(C)C)C(=O)N[C@@H](CCC(=O)O)C(=O)N[C@@H](CCC(=O)O)C(=O)N[C@@H](Cc1ccc(O)cc1)C(=O)N1CCC[C@H]1C(=O)N[C@@H](CCCNC(=N)N)C(=O)N[C@H](C(=O)N[C@@H](CC(=O)O)C(=O)N[C@H](C(=O)NCC(=O)N[C@@H](CO)C(=O)NCC(=O)N[C@@H](CO)C(=O)N1CCC[C@H]1C(N)=O)C(C)C)[C@@H](C)O
B2: calcitonin derivative M29 (peptide)
peptide: {C20 diacid-γGlu}-ASQLSTSVLGRLSQELHRLQDYPRTDVGSGSP-NH2
SMILES: CC(C)C[C@H](NC(=O)[C@H](CCCNC(=N)N)NC(=O)CNC(=O)[C@H](CC(C)C)NC(=O)[C@@H](NC(=O)[C@H](CO)NC(=O)[C@@H](NC(=O)[C@H](CO)NC(=O)[C@H](CC(C)C)NC(=O)[C@H](CCC(N)=O)NC(=O)[C@H](CO)NC(=O)[C@H](C)NC(=O)CC[C@H](NC(=O)CCCCCCCCCCCCCCCCCCC(=O)O)C(=O)O)[C@@H](C)O)C(C)C)C(=O)N[C@@H](CO)C(=O)N[C@@H](CCC(N)=O)C(=O)N[C@@H](CCC(=O)O)C(=O)N[C@@H](CC(C)C)C(=O)N[C@@H](Cc1c[nH]cn1)C(=O)N[C@@H](CCCNC(=N)N)C(=O)N[C@@H](CC(C)C)C(=O)N[C@@H](CCC(N)=O)C(=O)N[C@@H](CC(=O)O)C(=O)N[C@@H](Cc1ccc(O)cc1)C(=O)N1CCC[C@H]1C(=O)N[C@@H](CCCNC(=N)N)C(=O)N[C@H](C(=O)N[C@@H](CC(=O)O)C(=O)N[C@H](C(=O)NCC(=O)N[C@@H](CO)C(=O)NCC(=O)N[C@@H](CO)C(=O)N1CCC[C@H]1C(N)=O)C(C)C)[C@@H](C)O
B3: calcitonin derivative M47 (peptide)
peptide: {C20 diacid-Inp′}-ASQLSTAVLGRLSDELHRLQDYPRTDVGSGSP-NH2
B4: calcitonin derivative M63 (peptide)
peptide: {C20 diacid-γGlu-AEEA-AEEA-AEEA-AEEA}-ASQLSTAVLGRLSEELHRLQDYPRTDVGSGSP-NH2
SMILES: CC(C)C[C@H](NC(=O)[C@H](CCCNC(=N)N)NC(=O)CNC(=O)[C@H](CC(C)C)NC(=O)[C@@H](NC(=O)[C@H](C)NC(=O)[C@@H](NC(=O)[C@H](CO)NC(=O)[C@H](CC(C)C)NC(=O)[C@H](CCC(N)=O)NC(=O)[C@H](CO)NC(=O)[C@H](C)NC(=O)COCCOCCNC(=O)COCCOCCNC(=O)COCCOCCNC(=O)COCCOCCNC(=O)CC[C@H](NC(=O)CCCCCCCCCCCCCCCCCCC(=O)O)C(=O)O)[C@@H](C)O)C(C)C)C(=O)N[C@@H](CO)C(=O)N[C@@H](CCC(=O)O)C(=O)N[C@@H](CCC(=O)O)C(=O)N[C@@H](CC(C)C)C(=O)N[C@@H](Cc1c[nH]cn1)C(=O)N[C@@H](CCCNC(=N)N)C(=O)N[C@@H](CC(C)C)C(=O)N[C@@H](CCC(N)=O)C(=O)N[C@@H](CC(=O)O)C(=O)N[C@@H](Cc1ccc(O)cc1)C(=O)N1CCC[C@H]1C(=O)N[C@@H](CCCNC(=N)N)C(=O)N[C@H](C(=O)N[C@@H](CC(=O)O)C(=O)N[C@H](C(=O)NCC(=O)N[C@@H](CO)C(=O)NCC(=O)N[C@@H](CO)C(=O)N1CCC[C@H]1C(N)=O)C(C)C)[C@@H](C)O
B5: calcitonin derivative M15 (peptide)
peptide: {C20 diacid-γGlu}-ASQLSTAVLGRLSQELHRLQDYPRTQVGSGSP-NH2
SMILES: CC(C)C[C@H](NC(=O)[C@H](CCCNC(=N)N)NC(=O)CNC(=O)[C@H](CC(C)C)NC(=O)[C@@H](NC(=O)[C@H](C)NC(=O)[C@@H](NC(=O)[C@H](CO)NC(=O)[C@H](CC(C)C)NC(=O)[C@H](CCC(N)=O)NC(=O)[C@H](CO)NC(=O)[C@H](C)NC(=O)CC[C@H](NC(=O)CCCCCCCCCCCCCCCCCCC(=O)O)C(=O)O)[C@@H](C)O)C(C)C)C(=O)N[C@@H](CO)C(=O)N[C@@H](CCC(N)=O)C(=O)N[C@@H](CCC(=O)O)C(=O)N[C@@H](CC(C)C)C(=O)N[C@@H](Cc1c[nH]cn1)C(=O)N[C@@H](CCCNC(=N)N)C(=O)N[C@@H](CC(C)C)C(=O)N[C@@H](CCC(N)=O)C(=O)N[C@@H](CC(=O)O)C(=O)N[C@@H](Cc1ccc(O)cc1)C(=O)N1CCC[C@H]1C(=O)N[C@@H](CCCNC(=N)N)C(=O)N[C@H](C(=O)N[C@@H](CCC(N)=O)C(=O)N[C@H](C(=O)NCC(=O)N[C@@H](CO)C(=O)NCC(=O)N[C@@H](CO)C(=O)N1CCC[C@H]1C(N)=O)C(C)C)[C@@H](C)O
B6: calcitonin derivative M30 (peptide)
peptide: {C20 diacid-γGlu}-SSQLSTAVLGRLSQELHRLQDYPRTDVGSGSP-NH2
SMILES: CC(C)C[C@H](NC(=O)[C@H](CCCNC(=N)N)NC(=O)CNC(=O)[C@H](CC(C)C)NC(=O)[C@@H](NC(=O)[C@H](C)NC(=O)[C@@H](NC(=O)[C@H](CO)NC(=O)[C@H](CC(C)C)NC(=O)[C@H](CCC(N)=O)NC(=O)[C@H](CO)NC(=O)[C@H](CO)NC(=O)CC[C@H](NC(=O)CCCCCCCCCCCCCCCCCCC(=O)O)C(=O)O)[C@@H](C)O)C(C)C)C(=O)N[C@@H](CO)C(=O)N[C@@H](CCC(N)=O)C(=O)N[C@@H](CCC(=O)O)C(=O)N[C@@H](CC(C)C)C(=O)N[C@@H](Cc1c[nH]cn1)C(=O)N[C@@H](CCCNC(=N)N)C(=O)N[C@@H](CC(C)C)C(=O)N[C@@H](CCC(N)=O)C(=O)N[C@@H](CC(=O)O)C(=O)N[C@@H](Cc1ccc(O)cc1)C(=O)N1CCC[C@H]1C(=O)N[C@@H](CCCNC(=N)N)C(=O)N[C@H](C(=O)N[C@@H](CC(=O)O)C(=O)N[C@H](C(=O)NCC(=O)N[C@@H](CO)C(=O)NCC(=O)N[C@@H](CO)C(=O)N1CCC[C@H]1C(N)=O)C(C)C)[C@@H](C)O
B7: calcitonin derivative M48 (peptide)
peptide: {C18 diacid-Inp′}-ASQLSTAVLGRLSDELHRLQDYPRTDVGSGSP-NH2
B8: calcitonin derivative M64 (peptide)
peptide: {C20 diacid-γGlu-AEEA-AEEA-AEEA-AEEA-AEEA-AEEA}-ASQLSTAVLGRLSEELHRLQDYPRTDVGSGSP-NH2
SMILES: CC(C)C[C@H](NC(=O)[C@H](CCCNC(=N)N)NC(=O)CNC(=O)[C@H](CC(C)C)NC(=O)[C@@H](NC(=O)[C@H](C)NC(=O)[C@@H](NC(=O)[C@H](CO)NC(=O)[C@H](CC(C)C)NC(=O)[C@H](CCC(N)=O)NC(=O)[C@H](CO)NC(=O)[C@H](C)NC(=O)COCCOCCNC(=O)COCCOCCNC(=O)COCCOCCNC(=O)COCCOCCNC(=O)COCCOCCNC(=O)COCCOCCNC(=O)CC[C@H](NC(=O)CCCCCCCCCCCCCCCCCCC(=O)O)C(=O)O)[C@@H](C)O)C(C)C)C(=O)N[C@@H](CO)C(=O)N[C@@H](CCC(=O)O)C(=O)N[C@@H](CCC(=O)O)C(=O)N[C@@H](CC(C)C)C(=O)N[C@@H](Cc1c[nH]cn1)C(=O)N[C@@H](CCCNC(=N)N)C(=O)N[C@@H](CC(C)C)C(=O)N[C@@H](CCC(N)=O)C(=O)N[C@@H](CC(=O)O)C(=O)N[C@@H](Cc1ccc(O)cc1)C(=O)N1CCC[C@H]1C(=O)N[C@@H](CCCNC(=N)N)C(=O)N[C@H](C(=O)N[C@@H](CC(=O)O)C(=O)N[C@H](C(=O)NCC(=O)N[C@@H](CO)C(=O)NCC(=O)N[C@@H](CO)C(=O)N1CCC[C@H]1C(N)=O)C(C)C)[C@@H](C)O
B9: calcitonin derivative M16 (peptide)
peptide: {C20 diacid-γGlu}-ASQLSTAVLGRLSQELHRLQDYPRTDSGSGSP-NH2
SMILES: CC(C)C[C@H](NC(=O)[C@H](CCCNC(=N)N)NC(=O)CNC(=O)[C@H](CC(C)C)NC(=O)[C@@H](NC(=O)[C@H](C)NC(=O)[C@@H](NC(=O)[C@H](CO)NC(=O)[C@H](CC(C)C)NC(=O)[C@H](CCC(N)=O)NC(=O)[C@H](CO)NC(=O)[C@H](C)NC(=O)CC[C@H](NC(=O)CCCCCCCCCCCCCCCCCCC(=O)O)C(=O)O)[C@@H](C)O)C(C)C)C(=O)N[C@@H](CO)C(=O)N[C@@H](CCC(N)=O)C(=O)N[C@@H](CCC(=O)O)C(=O)N[C@@H](CC(C)C)C(=O)N[C@@H](Cc1c[nH]cn1)C(=O)N[C@@H](CCCNC(=N)N)C(=O)N[C@@H](CC(C)C)C(=O)N[C@@H](CCC(N)=O)C(=O)N[C@@H](CC(=O)O)C(=O)N[C@@H](Cc1ccc(O)cc1)C(=O)N1CCC[C@H]1C(=O)N[C@@H](CCCNC(=N)N)C(=O)N[C@H](C(=O)N[C@@H](CC(=O)O)C(=O)N[C@@H](CO)C(=O)NCC(=O)N[C@@H](CO)C(=O)NCC(=O)N[C@@H](CO)C(=O)N1CCC[C@H]1C(N)=O)[C@@H](C)O

Molecular target: T1, human amylin receptor (AMY3) on …
Test: cell-based or functional assay

Point of comparison: B7, “EC50/nM, CRE-luciferase in amylin receptor/CRE-luc CHO cells” value 0.063 nM. Against it:
- B1 — 3.7-fold lower, 0.017 nM
- B2 — 3.7-fold lower, 0.017 nM
- B3 — within 1.5-fold, 0.082 nM
- B4 — 1.7-fold lower, 0.037 nM
- B5 — 3.9-fold lower, 0.016 nM
- B6 — 3.7-fold lower, 0.017 nM
- B8 — within 1.5-fold, 0.044 nM
- B9 — 2.5-fold lower, 0.025 nM

From patent EP4692114A1, “CALCITONIN ANALOGUE, AND DERIVATIVE THEREOF AND USE THEREOF” (Hangzhou Sciwind Biosciences Co., Ltd., priority 2023, dated 2024)
